Measured values published in patent US20060030020A1.

What was measured:
[1] = target: mouse monoclonal anti-β-gal antibody (Promega, Madison, Wis.); assay: affinity selection on wells coated with anti-β-gal antibody, collagenase elution, plaques counted on X-gal; input λβ-gal/λV′sac 10^3/10^9
[2] = target: mouse monoclonal anti-β-gal antibody (Promega, Madison, Wis.); assay: affinity selection on wells coated with anti-β-gal antibody; input λβ-gal/λV′sac 10^3/10^9
[3] = target: mouse monoclonal anti-β-gal antibody (Promega, Madison, Wis.); assay: affinity selection on wells coated with anti-β-gal antibody, collagenase elution, plaques counted on X-gal; input λβ-gal/λV′sac 10^3/10^7
[4] = target: mouse monoclonal anti-β-gal antibody (Promega, Madison, Wis.); assay: affinity selection on wells coated with anti-β-gal antibody, collagenase elution, plaques counted on X-gal; input λβ-gal/λV′sac 10^4/10^9
[5] = target: mouse monoclonal anti-β-gal antibody (Promega, Madison, Wis.); assay: affinity selection on wells coated with anti-β-gal antibody, collagenase elution, plaques counted on X-gal; input λβ-gal/λV′sac 10^3/10^8
[6] = target: mouse monoclonal anti-β-gal antibody (Promega, Madison, Wis.); assay: affinity selection on wells coated with anti-β-gal antibody; input λβ-gal/λV′sac 10^3/10^7
[7] = target: mouse monoclonal anti-β-gal antibody (Promega, Madison, Wis.); assay: affinity selection on wells coated with anti-β-gal antibody; input λβ-gal/λV′sac 10^3/10^10
[8] = target: mouse monoclonal anti-β-gal antibody (Promega, Madison, Wis.); assay: affinity selection on wells coated with anti-β-gal antibody; input λβ-gal/λV′sac 10^3/10^6
[9] = target: mouse monoclonal anti-β-gal antibody (Promega, Madison, Wis.); assay: affinity selection on wells coated with anti-β-gal antibody, collagenase elution, plaques counted on X-gal; input λβ-gal/λV′sac 10^3/10^10
[10] = target: mouse monoclonal anti-β-gal antibody (Promega, Madison, Wis.); assay: affinity selection on wells coated with anti-β-gal antibody; input λβ-gal/λV′sac 10^4/10^9
[11] = target: mouse monoclonal anti-β-gal antibody (Promega, Madison, Wis.); assay: affinity selection on wells coated with anti-β-gal antibody, collagenase elution, plaques counted on X-gal; input λβ-gal/λV′sac 10^4/10^8
[12] = target: mouse monoclonal anti-β-gal antibody (Promega, Madison, Wis.); assay: affinity selection on wells coated with anti-β-gal antibody; input λβ-gal/λV′sac 10^4/10^10
[13] = target: mouse monoclonal anti-β-gal antibody (Promega, Madison, Wis.); assay: affinity selection on wells coated with anti-β-gal antibody; input λβ-gal/λV′sac 10^4/10^7
[14] = target: mouse monoclonal anti-β-gal antibody (Promega, Madison, Wis.); assay: affinity selection on wells coated with anti-β-gal antibody; input λβ-gal/λV′sac 10^4/10^8
[15] = target: mouse monoclonal anti-β-gal antibody (Promega, Madison, Wis.); assay: affinity selection on wells coated with anti-β-gal antibody, collagenase elution, plaques counted on X-gal; input λβ-gal/λV′sac 10^3/10^6
[16] = target: mouse monoclonal anti-β-gal antibody (Promega, Madison, Wis.); assay: single round of affinity selection on wells coated with anti-β-gal antibodies
[17] = target: mouse monoclonal anti-β-gal antibody (Promega, Madison, Wis.); assay: affinity selection on wells coated with anti-β-gal antibody; input λβ-gal/λV′sac 10^3/10^8
[18] = target: mouse monoclonal anti-β-gal antibody (Promega, Madison, Wis.); assay: affinity selection on wells coated with anti-β-gal antibody, collagenase elution, plaques counted on X-gal; input λβ-gal/λV′sac 10^4/10^7
[19] = target: mouse monoclonal anti-β-gal antibody (Promega, Madison, Wis.); assay: affinity selection on wells coated with anti-β-gal antibody, collagenase elution, plaques counted on X-gal; input λβ-gal/λV′sac 10^4/10^10
[20] = target: mucin of bovine submaxillary glands (Sigma, St. Louis, Mo.) (bovine); assay: affinity selection on wells coated with mucin, 1 mM CaCl2, collagenase elution

**Q.** For “λβ-gal phage particles grown on MC8 (su+), displaying the β-gal multimer (pV′-β-gal fusion protein assembled with β-gal monomers) on the phage tail (from UniProt P00722 10-1024)”, which Output Phage [1] is on record?
**A.** The Output Phage was 99 plaques.

**Q.** What about the Enrichment (fold over λV′sac) [2] of the same molecule?
**A.** The Enrichment (fold over λV′sac) was 280000.

**Q.** What about the Output Phage [3] of the same molecule?
**A.** Its Output Phage is 10 plaques.

**Q.** And the Output Phage [4]?
**A.** The Output Phage was 108 plaques.

**Q.** What about the Output Phage [5] of the same molecule?
**A.** Its Output Phage is 8 plaques.

**Q.** What about the Enrichment (fold over λV′sac) [6] of the same molecule?
**A.** Its Enrichment (fold over λV′sac) is 2000.

**Q.** And the Enrichment (fold over λV′sac) [7]?
**A.** Its Enrichment (fold over λV′sac) is 530000.

**Q.** What about the Enrichment (fold over λV′sac) [8] of the same molecule?
**A.** Its Enrichment (fold over λV′sac) is > 8000.

**Q.** What about the Output Phage [9] of the same molecule?
**A.** The Output Phage was 5 plaques.

**Q.** What about the Enrichment (fold over λV′sac) [10] of the same molecule?
**A.** The Enrichment (fold over λV′sac) was 300000.

**Q.** What about the Output Phage [11] of the same molecule?
**A.** Its Output Phage is 168 plaques.

**Q.** And the Enrichment (fold over λV′sac) [12]?
**A.** The Enrichment (fold over λV′sac) was 770000.

**Q.** What about the Enrichment (fold over λV′sac) [13] of the same molecule?
**A.** The Enrichment (fold over λV′sac) was 16000.

**Q.** What about the Enrichment (fold over λV′sac) [14] of the same molecule?
**A.** The Enrichment (fold over λV′sac) was 170000.

**Q.** What about the Output Phage [15] of the same molecule?
**A.** The Output Phage was 8 plaques.

**Q.** What about the average efficiency of recovery (% of the input phage) [16] of the same molecule?
**A.** The average efficiency of recovery (% of the input phage) was 1.

**Q.** And the Enrichment (fold over λV′sac) [17]?
**A.** Its Enrichment (fold over λV′sac) is 80000.

**Q.** What about the Output Phage [18] of the same molecule?
**A.** Its Output Phage is 96 plaques.

**Q.** And the Output Phage [19]?
**A.** Its Output Phage is 129 plaques.

B1: λBPA phage particles grown on MC8 (su+), displaying the BPA (Bauhinia purpurea lectin) multimer (pV′-BPA fusion protein assembled with BPA monomers) (protein, part only; not given: amber residue and junction residues, part only)
chain, part: MPVPNPTMPVKGAGTTLWVYKGSGDPYANPLSDVDWSRLAKVKDLTPGELTAESYDDSYLDDEDADWTATGQGQKSAGDTSFTLAWMPGEQGQQALLAWFNEGDTRAYKIRFPNGTVDVFRGWVSSIGKAVTAKEVITRTVKVTNVGRPSMAEDRSTVTAATGMTVTPASTSVVKGSWPVRPTPTPTTPTPTPTPTPTPTPTVGPIVTQETATSSTLTGFTFPNFWSNTQENGTEIIFLGNATYTPGALRLTRIGEDGIPLKSNAGQASYSRPVFLWDSTGHVASFYTSFSFIVRSIDVPHITADGFAFFLAPVDSSVKDYGGCLGLFRYKTATDPSKNQVVAVEFDTWPNTEWSDLRYPHIGINVNSTVSVATTRWDNDDAYVTKSTAHITYDATSKIITVLLTYDNGRHYQLSHVVDLPKILPERVRIGFSGGTGFNETQYILSWSFTSTLNSTKISALTQKLRSSASYSSM
chain: TSSTLTGFTFPNFWSNTQENGTEIIFLGNATYTPGALRLTRIGEDGIPLKSNAGQASYSRPVFLWDSTGHVASFYTSFSFIVRSIDVPHITADGFAFFLAPVDSSVKDYGGCLGLFRYKTATDPSKNQVVAVEFDTWPNTEWSDLRYPHIGINVNSTVSVATTRWDNDDAYVTKSTAHITYDATSKIITVLLTYDNGRHYQLSHVVDLPKILPERVRIGFSGGTGFNETQYILSWSFTSTLNSTKISALTQKLRSSASYSSM
**Q.** How did the recovery of input phage (% of input phage) [20] turn out when B1 was run?
**A.** Its recovery of input phage (% of input phage) is 0.01.

B2: λV′sac phage particles grown on MC8 (su+), reference phage (protein)
chain: MPVPNPTMPVKGAGTTLWVYKGSGDPYANPLSDVDWSRLAKVKDLTPGELTAESYDDSYLDDEDADWTATGQGQKSAGDTSFTLAWMPGEQGQQALLAWFNEGDTRAYKIRFPNGTVDVFRGWVSSIGKAVTAKEVITRTVKVTNVGRPSMAEDRSTVTAATGMTVTPASTSVVKG
**Q.** B2 was tested. Which Output Phage [1] did it give?
**A.** Its Output Phage is 32 plaques.

**Q.** What about the Output Phage [3] of the same molecule?
**A.** Its Output Phage is 5 plaques.

**Q.** What about the Output Phage [4] of the same molecule?
**A.** Its Output Phage is 39 plaques.

**Q.** What about the Output Phage [5] of the same molecule?
**A.** The Output Phage was 11 plaques.

**Q.** What about the Output Phage [9] of the same molecule?
**A.** The Output Phage was 106 plaques.

**Q.** What about the Output Phage [11] of the same molecule?
**A.** Its Output Phage is 25 plaques.

**Q.** And the Output Phage [15]?
**A.** The Output Phage was 0 plaques.

**Q.** And the Output Phage [18]?
**A.** Its Output Phage is 6 plaques.

**Q.** What about the Output Phage [19] of the same molecule?
**A.** Its Output Phage is 162 plaques.
